B1: pBFB398: Met-(OpLuc 1-50)-GSSGGSGGSG-R2betaB-GSSGGSGGSG-(OpLuc 51-169) (protein)
chain: MFTLADFVGDWQQTAGYNQDQVLEQGGLSSLFQALGVSVTPIQKVVLSGENGSSGGSGGSGMYESFIESLPFLKSLEFSERLKVVDVIGTKVYNDGEQIIAQGDSADSFFIVESGEVKITMKRKGKSEVEENGAVEIARCSRGQYFGELALVTNKPRAASAHAIGTVKCLAMDVQAFERLLGPCMEIMKRNIATYEEQLVALFGTNMDIVGSSGGSGGSGGLKADIHVIIPYEGLSGFQMGLIEMIFKVVYPVDDHHFKIILHYGTLVIDGVTPNMIDYFGRPYPGIAVFDGKQITVTGTLWNGNKIYDERLINPDGSLLFRVTINGVTGWRLCENILA
B2: pBFB399: OpLuc 1-50 / R2betaB / OpLuc 51-169, 20 aa linkers (SEQ ID NO: 192) (protein)
chain: MFTLADFVGDWQQTAGYNQDQVLEQGGLSSLFQALGVSVTPIQKVVLSGENGSSGGSGGSGGGSGGSGGSGMYESFIESLPFLKSLEFSERLKVVDVIGTKVYNDGEQIIAQGDSADSFFIVESGEVKITMKRKGKSEVEENGAVEIARCSRGQYFGELALVTNKPRAASAHAIGTVKCLAMDVQAFERLLGPCMEIMKRNIATYEEQLVALFGTNMDIVGSGGSGGSGGTSGGSGGSSGGLKADIHVIIPYEGLSGFQMGLIEMIFKVVYPVDDHHFKIILHYGTLVIDGVTPNMIDYFGRPYPGIAVFDGKQITVTGTLWNGNKIYDERLINPDGSLLFRVTINGVTGWRLCENILA
B3: pBFB401: Met-(OpLuc 1-84)-GSSGGSGGSG-R2betaB-GSSGGSGGSG-(OpLuc 85-169) (protein)
chain: MFTLADFVGDWQQTAGYNQDQVLEQGGLSSLFQALGVSVTPIQKVVLSGENGLKADIHVIIPYEGLSGFQMGLIEMIFKVVYPVDGSSGGSGGSGMYESFIESLPFLKSLEFSERLKVVDVIGTKVYNDGEQIIAQGDSADSFFIVESGEVKITMKRKGKSEVEENGAVEIARCSRGQYFGELALVTNKPRAASAHAIGTVKCLAMDVQAFERLLGPCMEIMKRNIATYEEQLVALFGTNMDIVGSSGGSGGSGDHHFKIILHYGTLVIDGVTPNMIDYFGRPYPGIAVFDGKQITVTGTLWNGNKIYDERLINPDGSLLFRVTINGVTGWRLCENILA
B4: pBFB402: OpLuc 1-84 / R2betaB / OpLuc 85-169, 20 aa linkers (SEQ ID NO: 195) (protein)
chain: MFTLADFVGDWQQTAGYNQDQVLEQGGLSSLFQALGVSVTPIQKVVLSGENGLKADIHVIIPYEGLSGFQMGLIEMIFKVVYPVDGSSGGSGGSGGGSGGSGGSGMYESFIESLPFLKSLEFSERLKVVDVIGTKVYNDGEQIIAQGDSADSFFIVESGEVKITMKRKGKSEVEENGAVEIARCSRGQYFGELALVTNKPRAASAHAIGTVKCLAMDVQAFERLLGPCMEIMKRNIATYEEQLVALFGTNMDIVGSGGSGGSGGTSGGSGGSSGDHHFKIILHYGTLVIDGVTPNMIDYFGRPYPGIAVFDGKQITVTGTLWNGNKIYDERLINPDGSLLFRVTINGVTGWRLCENILA
B5: pBFB400: Met-(OpLuc 1-84)-GSTG-R2betaB-GSSG-(OpLuc 85-169) (protein)
chain: MFTLADFVGDWQQTAGYNQDQVLEQGGLSSLFQALGVSVTPIQKVVLSGENGLKADIHVIIPYEGLSGFQMGLIEMIFKVVYPVDGSTGMYESFIESLPFLKSLEFSERLKVVDVIGTKVYNDGEQIIAQGDSADSFFIVESGEVKITMKRKGKSEVEENGAVEIARCSRGQYFGELALVTNKPRAASAHAIGTVKCLAMDVQAFERLLGPCMEIMKRNIATYEEQLVALFGTNMDIVGSSGDHHFKIILHYGTLVIDGVTPNMIDYFGRPYPGIAVFDGKQITVTGTLWNGNKIYDERLINPDGSLLFRVTINGVTGWRLCENILA
B6: pBFB232: CPM hRL 92-311/3-91 with GAF A domain from Trypanosoma brucei PDE (SEQ ID NO:185) (protein)
chain: MYRLLDHYKYLTAWFELLNLPKKIIFVGHDWGACLAFHYSYEHQDKIKAIVHAESVVDVIESWDEWPDIEEDIALIKSEEGEKMVLENNFFVETMLPSKIMRKLEPEEFAAYLEPFKEKGEVRRPTLSWPREIPLVKGGKPDVVQIVRNYNAYLRASDDLPKMFIESDPGFFSNAIVEGAKKFPNTEFVKVKGLHFSQEDAPDEMGKYIKSFVERVLKNEQGSSGGSGGSGGGSGGSGGSGSIMNTVKSLTESARCSLFLVRGDVLEAHFEDGNVVTIPRGAGIAGYVAQTGETVNIVDAYADDRFNREVDKATGYRTKTILCMPVMYEGTIVAVAQLINKLDLTTESGLRLPRVFGKRDEELFQTFSMFAGASLRGSGGSGGSGGTSGGSGGSSGASKVYDPEQRKRMITGPQWWARCKQMNVLDSFINYYDSEKHAENAVIFLHGNAASSYLWRHVVPHIEPVARCIIPDLIGMGKSGKSGNGSV

Key:
[1] = tested on: cyclic AMP dependent protein kinase catalytic subunit; conditions: cited from earlier work
[2] = tested on: intracellular cAMP concentration, HEK 293 cells; experiment: Intracellular cAMP changes in HEK 293 cells transiently transfected with CPM-FF Luc/RIIβB (pBFB141); assay type: cell-based
Procedure: Cells were cultured in 60 ml in DMEM/F12 with HEPES buffer (Invitrogen) with 10% FBS at 37° C. with 5% CO2.
The ORF encoding the CPM-FF Luc/RIIβB based cAMP biosensor with X/Y linker lengths of (X=10, Y=0) was transferred to Flexi vector pF4K (Flexi vector system; Promega Corp.). The resultant plasmid construct (pBFB141) utilizes an upstream CMV promoter for expression of the associated cAMP biosensor in mammalian cells.
Cells were transfected with TransIt®-LT1 Reagent (MIRUS) using 0.3 μl TransIt®-LT1 reagent and 0.15 μg DNA per well of a 96 well plate. Cells were allowed to grow overnight and were assayed the next day.
Approximately 1 day after transfection, cells were removed from the incubator and equilibrated to room temperature. A 5 μl aliquot of 100 mM Luciferin EF was added to a total of 90 μl of cell culture plus transfection reagent to give a final concentration of approximately 5 mM luciferin. Cells were then incubated at room temperature for at least 90 minutes. After 90 minutes at room temperature, baseline measurements of luminescence were measured using a 96 well Veritas Luminometer (Turner Biosystems; integration time of 0.5 seconds per well). Cells were then induced with 10 μM isopreterenol (CalBiochem), 50 mM forskolin (Sigma) or not induced (0.1% DMSO, Sigma) and luminescence was measured continuously for about 30 minutes. After 30 minutes, […] (Sigma) was added to cells with isopreterenol and 0.1% DMSO was added to all other samples. Luminescence was then measured continuously for the next 30 minutes. A final addition of 50 μM forskolin was added to the isopreterenol/propranolol sample and 0.1% DMSO was added to all other samples. Luminescence was then measured continuously for the next half hour. Samples were measured in sets of 12 replicates. 10× stocks of isopreterenol, propranolol, forskolin and DMSO were made in 1×PBS (Invitrogen).

[3] = tested on: intracellular cAMP concentration, HEK 293 cells; experiment: Intracellular cAMP changes in HEK293 cells with CPM-hRL Luc/RIIβB biosensors (isopreterenol, propranolol, forskolin); assay type: cell-based
Procedure: Cells were cultured in 2 mL DMEM/F12 with HEPES buffer (Invitrogen) and 10% FBS at 37° C. with 5% CO2 in a 6 well plate. Three of the constructs described in Example XVII were used to detect intracellular changes of cAMP concentrations. The constructs used were: pBFB277, pBFB279 and pBFB287. HEK293 cells stably expressing CPM91-hRL/RIIβB (ORF derived from 201325.44.H6 were also used in these experiments. HEK293 cells were transfected with TransIt®-LT1 Reagent (MIRUS) using 6 μL TransIt®-LT1 reagent and 2 μg DNA (pBFB277, pBFB279 and pBFB287) per well of a 6 well plate. Cells were allowed to grow overnight and were assayed the next day. Approximately 1 day after transfection, cells were trypsinized, resuspended in fresh DMEM/F12 with HEPES buffer (Invitrogen) with 1% FBS and plated in a 96 well plate at approximately 10,000 cells per well. Alternatively, a HEK293 cell line stably expressing CP91-hRL/RIIβB was plated in a 96 well plate at approximately 10,000 cells per well. A 10 μL aliquot of 600 μM EnduRen was added to a total of 100 μL of cell culture to give a final concentration of approximately […]. Cells were then incubated at 37° C. with 5% CO2. After 5 hours, the plate was removed from the incubator and allowed to cool to room temperature for at least 20 minutes. After 20 minutes, baseline measurements of luminescence were measured using a 96 well Veritas Luminometer (Turner Biosystems; integration time of 0.5 seconds per well). Cells were then induced with 10 μM isopreterenol (CalBiochem), 50 μM forskolin (Sigma) or not induced (0.1% DMSO, Sigma) and luminescence was measured continuously for about 30 minutes. After 30 minutes, 10 μM propranolol (Sigma) was added to cells already induced with isopreterenol and 0.1% DMSO was added to all other samples. Luminescence was then measured continuously for the next 30 minutes. A final addition of 50 μM forskolin was added to the isopreterenol/propranolol sample and 0.1% DMSO was added to all other samples. Luminescence was then measured continuously for the next half hour. Samples were measured in sets of 4-6 replicates. 10× stocks of isopreterenol, propranolol, forskolin and DMSO were made in DMEM/F12 with HEPES buffer (Invitrogen) and 1% FBS.

[4] = Nonpermuted Oplophorus luciferase/RIIβB insertion constructs, luminescence with or without exogenous cAMP; assay type: biochemical; conditions: for luminescence, + exogenous cAMP: addition of exogenous cAMP to 50 μM final concentration; for luminescence, − no exogenous cAMP: no exogenous cAMP was added
Procedure: Protein was expressed from these constructs using the TnT T7 Coupled Reticulocyte Lysate System. Following expression, 9 μL of TNT reaction was mixed with 1 μL 1 mM cAMP stock or H2O, and the reactions were allowed to incubate at room temperature for approximately 15 minutes. Following incubation, 10 μL of 2× buffer (300 mM HEPES, pH=8.0, 200 mM thiourea) was added to each reaction, and luminescence was measured from the resulting 20 μL of solution following addition of 100 μL of Renilla Assay Reagent using a Turner 20/20N luminometer (1 second integration time).

[5] = CPM hRL / GAF A domain biosensor, luminescence with or without exogenous cAMP (reticulocyte lysate); assay type: biochemical
Procedure: An additional type of cAMP biosensor was constructed using a circularly permuted Renilla luciferase (hRL) and a GAF domain. The plasmid DNA construct encoding the following fusion protein: Met-(hRL 92-311)-[…]-(GAF A domain from Trypanosoma brucei PDE; Genbank AF192755 amino acids 241-375)-[…]-A-(hRL 3-91)-Val (SEQ ID NO:185) [clone pBFB232]. Following expression using the T7 Coupled Reticulocyte Lysate System, luminescence activity was measured in the presence or absence of exogenous cAMP. In the presence of cAMP, the measured activity was 7595 RLU; in the absence of cAMP, the measured activity was 298 RLU (about a 25 fold change). […] This type of reagent may allow the monitoring of changes in cAMP concentration in living cells, and it also may provide distinct advantages over existing FRET-based cAMP biosensors in that assay format. Moreover, since the GAF domain is a highly conserved fold in nature responsible for binding a wide range of molecules, it is likely that additional types of CPM hRL biosensors could be made using this fold.

| Molecule | luminescence, + exogenous cAMP [4] | luminescence, − no exogenous cAMP [4] | other results |
| --- | --- | --- | --- |
| LRRASLG |  |  | decrease in activity on phosphorylation by cyclic AMP dependent protein kinase [1]: 30% |
| RRFS: Photinus pyralis luciferase V217R mutant with site RRFS (SEQ ID NO:117), Sala-Newby et al. |  |  | decrease in activity on phosphorylation by cyclic AMP dependent protein kinase [1]: up to 80% |
| Wild type luciferase: wild type (firefly) luciferase control |  |  | response to known modulators of intracellular cAMP concentration ([2]; control constructs in HEK 293 cells): no specific response |
| CC(C)NCC(O)c1ccc(O)c(O)c1 (stereo not shown) [isopreterenol] |  |  | increase in light output from transfected cells ([2]; HEK 293 cells, pBFB141, 10 μM isopreterenol or 50 mM forskolin (so in the source), treatment alone, room temperature): approximately 2 fold; increase in light output ([3]; HEK293 cells stably expressing CPM91-hRL/RIIβB, isopreterenol and forskolin treatment): about 5 fold; increase in light output from transfected cells ([3]; HEK 293 transiently transfected with CPM-hRL Luc/RIIβB (X=4, Y=20) constructs, 10 μM isopreterenol or 50 μM forskolin alone): approximately 2 fold |
| B1 | 4,917 | 291 |  |
| B2 | 38,051 | 356 |  |
| B3 | 6,124 | 2,304 |  |
| B4 | 62,264 | 8,568 |  |
| B5 | 10,369 | 6,387 |  |
| B6 |  |  | measured activity in the presence of cAMP ([5]; exogenous cAMP): 7595 RLU; measured activity in the absence of cAMP ([5]; no cAMP): 298 RLU; fold change with cAMP ([5]; presence vs absence of cAMP): ~25 fold |

— US10077433B2, “Permuted and nonpermuted luciferase biosensors” (PROMEGA CORPORATION, priority 2006, dated 2018)
